According to patent US20130052195A1 (EMERGENT PRODUCT DEVELOPMENT SEATTLE, published 2013):

Molecular target: T1, murine IL6 (murine, UniProt P08505 25-211)
T1 construct: also called mIL-6; mIL6
T1 sequence (looked up): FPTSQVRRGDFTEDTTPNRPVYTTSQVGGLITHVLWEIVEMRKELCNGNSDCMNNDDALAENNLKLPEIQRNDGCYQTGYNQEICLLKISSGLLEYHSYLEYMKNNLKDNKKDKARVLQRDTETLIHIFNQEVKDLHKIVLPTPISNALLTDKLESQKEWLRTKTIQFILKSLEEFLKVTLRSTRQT
Assay: not described (statement in Example 1)

- binding result: no binding
B1: A2-XT6 (multi-target binding molecule with the TNFR extracellular domain (ECD) at the N-terminal end and the anti-hyperIL6 scFv at the carboxy-terminal end) (other)
chain: LPAQVAFTPYAPEPGSTCRLREYYDQTAQMCCSKCSPGQHAKVFCTKTSDTVCDSCEDSTYTQLWNWVPECLSCGSRCSSDQVETQACTREQNRICTCRPGWYCALSKQEGCRLCAPLRKCRPGFGVARPGTETSDVVCKPCAPGTFSNTTSSTDICRPHQICNVVAIPGNASMDAVCTSTSPTRSMAPGAVHLPQPVSTRSQHTQPTPEPSTAPSTSFLLPMGPSPPAEGSTGDTGEPKSSDKTHTCPPCPAPEAAGAPSVFLFPPKPKDTLMISRTPEVTCVVVDVSHEDPEVKFNWYVDGVEVHNAKTKPREEQYNSTYRVVSVLTVLHQDWLNGKAYACAVSNKALPAPIEKTISKAKGQPREPQVYTLPPSRDELTKNQVSLTCLVKGFYPSDIAVEWESNGQPENNYKTTPPVLDSDGSFFLYSKLTVDKSRWQQGNVFSCSVMHEALHNHYTQKSLSLSPGQRHNNSSLNTRTQKARHSPNSEVQLLESGGGLVQPGGSLRLSCAASGFTFSFYQMHWVRQAPGKGLEWVSGIYPSGGYTKYADSVKGRFTISRDNSKNTLYLQMNSLRAEDTAVYYCARDLGYGSSWYYFDYWGQGTLVTVSSGGGGSGGGGSGGGGSQSALTQPASVSGSPGQSITISCSGTDSDVGGYNHVSWYQQHPGKAPKLIIYDVDHRPSGISNRFSGSKSGNTASLTISGLQAEDEADYYCSSYRSGSTYVFGTGTKVTVL
notes: also called Zeu080a; TRU(XT6)-1002
